Assay [1] concerns the target T1, human PD-L1-his protein (human, UniProt Q9NZQ7 19-238).
T1 construct: extracellular domain; also called human PD-L1 (ECD)-his; human PD-L1 protein; not shown: his tag
Nature of the assay: SPR on huPDL1 loaded on the chip; 3C2VH6VL5 injected first, anti-PD-L1 sdAb second. The protocol: To further determine the epitopes the two binding arms of the bi- or multi-specific antibodies bind, a competitive SPR binding assay was performed. Briefly, 1 μg/ml human PD-L1 (ECD)-his proteins (Cat #:10084-H08H, Sino Biological, CN) were coupled to a CM5 biosensor chip (Cat #:BR-1005-30, GE Life Sciences, USA). The un-reacted groups were then blocked with 1 M ethanolamine. The anti-PD-L1 antibodies, 3C2VH6VL5 and 56E5VH5VL4, of 5 μg/ml were respectively injected into the SPR running buffer (IBS-EP buffer, pH7.4, Cat #:BR-1006-69, GE Life Sciences, USA) at 30 μl/min. Then, a second anti-PD-L 1 antibody (i.e., the anti-PD-L1 nanobody) of 5 μg/ml was injected into the SPR running buffer at 30 μL/min. The binding affinity was calculated with the RUs of blank controls subtracted, and the association rate (kₐ) and dissociation rate (kd) were determined using the one-to-one Langmuir binding model.

Assay [2] concerns the target T2, human PD-L1 on HEK293A/human PD-L1 cells (human, UniProt Q9NZQ7 19-290). Kind of assay: FACS blocking assay on HEK293A/human PD-L1 cells; blocked ligand PD-1-Fc. The procedure:
(§1) The bispecific antibodies were tested for their blocking activity on PD-1-PD-L1 binding by FACS using the HEK293A cells stably expressing human PD-L1 molecules as prepared in Example 1. Briefly, a 96-well plate was seeded with 10⁵ HEK293A/human PD-L1 cells in 100 μl cell culture medium, and then added with 50 μl serially diluted anti-PD-L1 antibody 56E5VH5VL4 or MBS307-3 molecules. After incubation at 4° C. for 1 h. the plate was washed with PBST for 3 times, added with 100 μl 200 μg/ml PD-1-Fc fusion proteins (Cat #:10377-10211, Sino Biological, CN), incubated at 4° C. for 1 h, washed with PBST for 3 times, and added with 1:500 diluted PE-goat anti-human IgG (Cat #:PAI-86078, Thermofisher, USA). After incubation at 4° C. for 1 h, the plate was washed with PBST for 3 times and measured for fluorescence using a FACS machine (BD).
(§2) Following the protocol of Example 7, the bi- or multi-specific antibodies were tested for their capability to block PD-1-PD-L1 binding by FACS, using the HEK293A cells prepared in Example 1 that stably expressed human PD-L1 molecules.

Assay [3] deals with T3, human CD40 on HEK293A/human CD40 cells (human, UniProt P25942 21-277). Kind of assay: cell-based or functional assay.
T3 sequence (P25942 21-277 limits assumed): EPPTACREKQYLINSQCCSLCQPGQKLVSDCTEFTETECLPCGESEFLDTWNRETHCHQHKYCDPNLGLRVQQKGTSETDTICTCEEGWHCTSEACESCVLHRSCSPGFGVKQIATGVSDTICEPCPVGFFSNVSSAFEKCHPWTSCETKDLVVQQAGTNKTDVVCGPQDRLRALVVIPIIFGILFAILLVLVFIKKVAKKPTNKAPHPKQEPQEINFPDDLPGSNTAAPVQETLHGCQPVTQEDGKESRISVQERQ
In assay [4] the target is T3, human CD40 on HEK293A/human CD40 cells. Kind of assay: FACS on HEK293A/human CD40 cells. The protocol:
(§3) The bispecific antibodies as prepared above were tested for their binding capability to cell surface human, monkey and mouse CD40 proteins by FACS, using the HEK293A cells prepared in Example 1 that stably expressed human, monkey or mouse CD40. Briefly, a 96-well plate was seeded with 10⁵ HEK293A cells in 50 μl PBS, and then added with 100 μl serially diluted anti-CD40 antibody 714VH2VL2 and the bispecific antibodies of the disclosure (starting concentration at 40 μg/ml). After incubation at 4° C. for 1 h, the plate was washed by PBST for 3 times. The plate was added with 1:500 diluted APC-goat anti-mouse IgG (Cat #:405308, BioLegen, USA), incubated at 4° for 1 h, washed with PBS for 3 times, and subjected to fluorescence measurement in a FACS machine (BD).
(§4) Following the protocols in Example 4 and Example 5, the bi- or multi-specific antibodies of the disclosure were tested for their binding capability to human PD-L1 and human CD40 proteins by FACS using the HEK293A cells prepared in Example 1 that stably expressed human PD-L1 or human CD40.

Assay [5] addresses T2, human PD-L1 on HEK293A/human PD-L1 cells. Kind of assay: FACS blocking assay on HEK293A/human PD-L1 cells; blocked ligand PD-1-Fc. The method in brief: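 Cells preincubated with serially diluted antibody 1 h at 4° C, washed, then exposed to 200 μg/ml PD-1-Fc for 1 h at 4° C. Bound PD-1-Fc detected with PE-anti-human IgG and read by flow cytometry.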
The source holds these as a separate data set.

For a further assay, the target named is T4, human CD40-his protein (human, UniProt P25942 21-193).
T4 construct: Bought protein; also called human CD40 protein; CD40 molecules; not shown: his tag
T4 sequence (P25942 21-193 limits assumed): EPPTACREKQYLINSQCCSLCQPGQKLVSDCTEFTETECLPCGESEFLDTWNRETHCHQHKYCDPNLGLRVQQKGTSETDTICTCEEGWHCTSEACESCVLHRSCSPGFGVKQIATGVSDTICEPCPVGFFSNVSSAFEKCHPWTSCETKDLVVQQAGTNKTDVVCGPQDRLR
Nature of the assay: SPR (BIAcore 8K), human CD40-his coupled to CM5 chip, antibody injected.

The target of assay [6] is T2, human PD-L1 on HEK293A/human PD-L1 cells. Kind of assay: FACS on HEK293A/human PD-L1 cells. The method in brief:
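HEK293A cells stably expressing the target (10⁵ cells/well) incubated with serially diluted antibodies from 40 μg/ml, 1 h at 4 °C. After PBST washes, bound antibody detected with 1:500 APC-goat anti-mouse IgG for 1 h at 4 °C and read by flow cytometry.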

Assay [7] concerns the target T1, human PD-L1-his protein. Nature of the assay: SPR (BIAcore 8K), human PD-L1-his coupled to CM5 chip, antibody injected.
Assay [8] has as its target T2, human PD-L1 on HEK293A/human PD-L1 cells. Kind of assay: FACS blocking assay on HEK293A/human PD-L1 cells; blocked ligand PD-1-Fc. The protocol:
as §1, §2
The source holds these as a separate data set.

Assay [9] concerns the target T3, human CD40 on HEK293A/human CD40 cells. Nature of the assay: cell-based or functional assay. This is another data set of the same source.
Assay [10] has the same target. Kind of assay: FACS on HEK293A/human CD40 cells. The procedure:
as §3, §4
The source holds these as a separate data set.

In general, EC50 (read off the curve) refers to the midpoint of the concentration-response curve. A low value points to an effect from little substance. One may read the Kd as the concentration at which binding is half-saturated.

Where two headings read alike, the source gives them in different places.

T2 sequence (Q9NZQ7 19-290 limits assumed): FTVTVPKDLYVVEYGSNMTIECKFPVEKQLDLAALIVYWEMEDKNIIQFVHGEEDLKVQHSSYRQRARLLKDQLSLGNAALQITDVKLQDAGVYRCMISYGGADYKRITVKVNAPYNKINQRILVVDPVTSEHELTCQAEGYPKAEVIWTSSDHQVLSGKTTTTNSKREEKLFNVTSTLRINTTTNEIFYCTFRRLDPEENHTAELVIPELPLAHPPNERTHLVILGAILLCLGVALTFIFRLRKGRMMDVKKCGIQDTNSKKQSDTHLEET
T1 sequence (Q9NZQ7 19-238): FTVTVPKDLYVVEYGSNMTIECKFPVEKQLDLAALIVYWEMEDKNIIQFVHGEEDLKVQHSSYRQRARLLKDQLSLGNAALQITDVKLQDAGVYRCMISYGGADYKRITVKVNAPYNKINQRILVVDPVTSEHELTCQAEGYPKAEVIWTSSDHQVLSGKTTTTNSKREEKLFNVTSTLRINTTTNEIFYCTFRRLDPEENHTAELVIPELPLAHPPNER

B1: anti-PD-L1 nanobody (VHH)
VHH: QVQLLESGGGLVQPGGSLRLSCAASGFAFSDYAMTWVRQAPGKGLEWVSTINSGGQSSSYLDSVKGRFTSSRDNSKNTLYLQMNSLRAEDTAVYYCAKGVYMPWKAPKGQGTLVTVSS
notes: also called monospecific anti-PD-L1 nanobody
For B1, the binding result with human PD-L1-his protein [1] was “binds”.

B2: MBS307-9 (bispecific antibody, human IgG1, kappa, L234A L235A)
heavy 1: QVQLQESGPGLVKPSDTLSLTCAVSGYSITTNYYWNWIRQPPGKGLEWMGYIKYDGSNNYNPSLKNRITISVDTSKNQFSLKLSSVTAVDTAVYYCARLDYWGQGTLVTVSSASTKGPSVFPLAPSSKSTSGGTAALGCLVKDYFPEPVTVSWNSGALTSGVHTFPAVLQSSGLYSLSSVVTVPSSSLGTQTYICNVNHKPSNTKVDKKVEPKSCDKTHTCPPCPAPEAAGGPSVFLFPPKPKDTLMISRTPEVTCVVVDVSHEDPEVKFNWYVDGVEVHNAKTKPREEQYNSTYRVVSVLTVLHQDWLNGKEYKCKVSNKALPAPIEKTISKAKGQPREPQVYTLPPSREEMTKNQVSLWCLVKGFYPSDIAVEWESNGQPENNYKTTPPVLDSDGSFFLYSKLTVDKSRWQQGNVFSCSVMHEALHNHYTQKSLSLSPGGGGGQVQLQESGPGLVKPSQTLSLTCTVSGGSITSDYWNWIRQHPGNKLEYMGYISYTGSTYYNPSLKSRISITRDTSKNQFSLKLSSVTTADTAVYYCARYRDWDVRAMDYWGQGTTVTVSSGGGGSGGGGSGGGGSGGGGSDIVMTQSPDSLAVSLGEKVTMNCKSSQSLLISGNQKNFLTWYQQKPGQPPKLLIYWASTRESGVPDRFSGSGSGTDFTLTISSLQAEDEAVYYCQNDFGFPFTFGQGTKLTAK
heavy 2: QVQLQESGPGLVKPSDTLSLTCAVSGYSITTNYYWNWIRQPPGKGLEWMGYIKYDGSNNYNPSLKNRITISVDTSKNQFSLKLSSVTAVDTAVYYCARLDYWGQGTLVTVSSASTKGPSVFPLAPSSKSTSGGTAALGCLVKDYFPEPVTVSWNSGALTSGVHTFPAVLQSSGLYSLSSVVTVPSSSLGTQTYICNVNHKPSNTKVDKKVEPKSCDKTHTCPPCPAPEAAGGPSVFLFPPKPKDTLMISRTPEVTCVVVDVSHEDPEVKFNWYVDGVEVHNAKTKPREEQYNSTYRVVSVLTVLHQDWLNGKEYKCKVSNKALPAPIEKTISKAKGQPREPQVYTLPPSREEMTKNQVSLSCAVKGFYPSDIAVEWESNGQPENNYKTTPPVLDSDGSFFLVSKLTVDKSRWQQGNVFSCSVMHEALHNHYTQKSLSLSPGGGGGQVQLVQSGAEVKKPGASVKVSCKASGYTFTDYHVNWVRQAPGQGLEWIGWIFPGSGRTFYTDKFKGRVTMTVDTSTSTVYMELSSLRSEDTAVYYCATDYGTSGYGLVYWGQGTTVTVSSGGGGSGGGGSGGGGSGGGGSDIQMTQSPSSLSASVGDRVTITCKASDRINNWLAWYQQKPGKAPKLLISGATSLETGVPSRFSGSGSGTDFTLTISSLQPEDEATYYCQQYWNIPFTFGQGTKLTAK
light: DVVLTQSPLSLPVTLGQPASISCRSSQSLENSNGNTFLNWFQQRPGQSPRLLIYKVSNRFSGVPDRFSGSGSGTDFTLKISRVEAEDVGVYYCLQVTHVPFTFGQGTKLEIKRTVAAPSVFIFPPSDEQLKSGTASVVCLLNNFYPREAKVQWKVDNALQSGNSQESVTEQDSKDSTYSLSSTLTLSKADYEKHKVYACEVTHQGLSSPVTKSFNRGEC
notes: Asymmetric: knob chain with the 56E5VH5VL4 scFv, hole chain with the 3C2VH6VL5 scFv, linker 4 (short linker); also called MBS307-9-1 + MBS307-9-2
As for B2, the “IC50 (read off the curve)” value is approximately 200 ng/mL in assay [2], approximately 600 ng/mL in assay [5] and approximately 200 ng/mL in [8]. Also, the “EC50 (read off the curve); HEK-Blue/CD40 reporter, OD630, plate coated with human PD-L1-his” value in assay [3] is approximately 10 ng/mL; in assay [9], approximately 20 ng/mL. Besides, the “EC50 (read off the curve)” value in assay [4] is approximately 70 ng/mL; in [6] it was approximately 200 ng/mL; in assay [10], approximately 20 ng/mL. The Kd in the assay with human CD40-his protein came out at 2.9 nM; in the assay with human PD-L1-his protein [7], 0.683 nM.

Values taken from patent US20240084027A1 (BEIJING MABWORKS, published 2024).
